Measured values published in FireProtDB (doi:10.1006/jmbi.2000.3958).

Conditions: Schizosaccharomyces pombe (strain 972 / ATCC 24843); pH 7.5; 25 °C; Urea; Fluorescence; Tris 50 mM; whole UniProt chain shown

B1: Cyclin-dependent kinases regulatory subunit wild type, P08463 (protein)
chain: MSKSGVPRLLTASERERLEPFIDQIHYSPRYADDEYEYRHVMLPKAMLKAIPTDYFNPETGTLRILQEEEWRGLGITQSLGWEMYEVHVPEPHILLFKREKDYQMKFSQQRGG
denaturant m value: 1.63 kcal/mol/M
denaturant midpoint (higher = more stable): 4.42 M
